Test results taken from PMC2169338 (The Journal of Cell Biology, 1999).

B1: Tom70 (receptor, UniProt P23231 1-624, looked up)
chain: MAPTIPPPSVPIPAATPVTVPADSSIWDRVSNWVSEHKAVVYTIAGVSVVITTAGVVYYLRKGSEQKESGPKLSKKERRKRKQAEKGEAEKASTSKTEEAAPTQPKAAAVESADELPEIDEESVVRLSEDERKAYAAKLKELGNKAYGSKDFNKAIDLYSKAIICKPDPVYYSNRAACHNALAQWEQVVADTTAALKLDPHYVKALNRRANAYDQLSRYSDALLDFTASCIIDGFRNEQSAQAVERLLKKFAENKAKEILETKPPKLPSSTFVGNYLQSFRSKPRPEGLEDSVELSEETGLGQLQLGLKHLESKTGTGYEEGSAAFKKALDLGELGPHEALAYNLRGTFHCLMGKHEEALADLSKSIELDPAMTQSYIKRASMNLELGHPDKAEEDFNKAIEQNAEDPDIYYHRAQLHFIKGEFAEAAKDYQKSIDLDSDFIFSHIQLGVTQYKMGSIASSMATFRRCMKNFDQTPDVYNYYGELLLDQNKFQEAIEKFDTAIALEKETKPMCMNVLPLINKALALFQWKQDYAEAEQLCEKALIIDPECDIAVATMAQLLLQQGKVVEALKFFERAAELARTEGELVNALSYAEATRTQIQVQENYPELASKLQGMSGGPGMR
B2: Tom40 (natural protein)
chain: not shown

Columns and labels:
[1] = biological target: the molecule itself; test: SDS-PAGE
[2] = biological target: the molecule itself; test: 35S-sulfate labelling, SDS-PAGE and phosphorimaging of the purified complex

Protein	stoichiometry N [1]	stoichiometry N [2]
B1	2	–
B2	–	~8 copies of Tom40 in the core complex
